# Publication PMC9444977 (Cancer research, 2022)
# B1: n-terminus FLAG-tagged CacyBP, recombinant purified (natural protein, UniProt Q9HB71 1-228, looked up)
# chain: MASEELQKDLEEVKVLLEKATRKRVRDALTAEKSKIETEIKNKMQQKSQKKAELLDNEKPAAVVAPITTGYTVKISNYGWDQSDKFVKIYITLTGVHQVPTENVQVHFTERSFDLLVKNLNGKSYSMIVNNLLKPISVEGSSKKVKTDTVLILCRKKVENTRWDYLTQVEKECKEKEKPSYDTETDPSEGLMNVLKKIYEDGDDDMKRTINKAWVESREKQAKGDTEF
# Target: T1, FHH-tagged Siah1, recombinant purified (UniProt Q8IUQ4 1-282, labeled with RED-tris-NTA 2nd generation dye (Monolith His-Tag labeling kit))
# T1 sequence (looked up): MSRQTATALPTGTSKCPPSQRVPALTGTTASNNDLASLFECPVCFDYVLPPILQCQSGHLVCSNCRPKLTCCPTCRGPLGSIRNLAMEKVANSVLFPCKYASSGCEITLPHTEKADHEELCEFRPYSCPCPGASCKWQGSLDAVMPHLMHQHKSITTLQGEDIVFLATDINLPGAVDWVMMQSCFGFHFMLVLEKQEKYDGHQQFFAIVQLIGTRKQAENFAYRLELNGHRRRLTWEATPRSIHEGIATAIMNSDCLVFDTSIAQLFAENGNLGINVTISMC
# Experiment: MST
binder,measurement,value
B1,Kd,9.8 µM
